# B1: FAM189A2 (parent)
# chain: NLAGFILGCQGAQFVSSVPRCDLV
# Variants of: B1
# Assay: protein stability index of a GFP-peptide fusion (GPS, HEK-293T) (PSI 1-6); higher = more stable
# Conditions: c terminus: a fixed tail appended
# 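Note: lentivirally expressed fusions sorted by FACS into six bins by GFP to DsRed ratio, PSI derived from sequencing read proportions per bin multiplied by bin number.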
row,Variant,protein stability index
1,NLAGFILGCQGAQFVSSVPRCDWV [L23W],3.69
2,NLAGFILGCQGAQFVSSVPRCDNV [L23N],2.75
3,NLAGFILGCQGAQFVSSVPRCDRV [L23R],1.58
4,NLAGFILGCQGAQFVSSVPRCDSV [L23S],1.93
5,NLAGFILGCQGAQFVSSVPRCDPV [L23P],2.98
6,NLAGFILGCQGAQFVSSVPRCDDV [L23D],2.45
7,NLAGFILGCQGAQFVSSVPQCDLV [R20Q],1.45
8,NLAGFILGCQGAQFVSSVPICDLV [R20I],2.15
9,NLAGFILGCQGAQFVSSVPECDLV [R20E],1.96
10,NLAGFILGCQGAQFVSSVPHCDLV [R20H],3.48
11,NLAGFILGCQGAQFVSSVCRCDLV [P19C],3.7
12,NLAGFILGCQGAQFVSSVTRCDLV [P19T],3.3
13,NLAGFILGCQGAQFVSSVQRCDLV [P19Q],2.65
14,NLAGFILGCQGAQFVSSVMRCDLV [P19M],1.45
15,NLAGFILGCQGAQFVSSVRRCDLV [P19R],2.56
16,NLAGFILGCQGAQFVSSVNRCDLV [P19N],3.15
17,NLAGFILGCQGAQFVSSVFRCDLV [P19F],3.04
18,NLAGFILGCQGAQFVSSVHRCDLV [P19H],3.01
19,NLFGFILGCQGAQFVSSVPRCDLV [A3F],2.77
20,NLWGFILGCQGAQFVSSVPRCDLV [A3W],3.4
21,NLTGFILGCQGAQFVSSVPRCDLV [A3T],3.18
22,NLHGFILGCQGAQFVSSVPRCDLV [A3H],2
23,NLQGFILGCQGAQFVSSVPRCDLV [A3Q],1.03
24,NLKGFILGCQGAQFVSSVPRCDLV [A3K],2.35

row,Variant,protein stability index
1,NLSGFILGCQGAQFVSSVPRCDLV [A3S],1.12
2,NLEGFILGCQGAQFVSSVPRCDLV [A3E],2.11
3,NLNGFILGCQGAQFVSSVPRCDLV [A3N],4.16
4,NLAGFTLGCQGAQFVSSVPRCDLV [I6T],1.66
5,NLAGFVLGCQGAQFVSSVPRCDLV [I6V],2.18
6,NLAGFCLGCQGAQFVSSVPRCDLV [I6C],2.3
7,NLAGFKLGCQGAQFVSSVPRCDLV [I6K],2.29
8,NLAGFPLGCQGAQFVSSVPRCDLV [I6P],1.6
9,NLAGFSLGCQGAQFVSSVPRCDLV [I6S],1.98
10,NLAGFQLGCQGAQFVSSVPRCDLV [I6Q],1.94
11,NLAGFYLGCQGAQFVSSVPRCDLV [I6Y],2.26
12,NLAGFILGFQGAQFVSSVPRCDLV [C9F],2.36
13,NLAGFILGVQGAQFVSSVPRCDLV [C9V],2.04
14,NLAGFILGRQGAQFVSSVPRCDLV [C9R],1.23
15,NLAGFILGHQGAQFVSSVPRCDLV [C9H],3.12
16,NLAGFILGDQGAQFVSSVPRCDLV [C9D],1.38
17,NLAGFILGGQGAQFVSSVPRCDLV [C9G],2.35
18,NLAGFILGPQGAQFVSSVPRCDLV [C9P],1.11
19,NLAGFILGCQNAQFVSSVPRCDLV [G11N],3.08
20,NLAGFILGCQYAQFVSSVPRCDLV [G11Y],3.45
21,NLAGFILGCQPAQFVSSVPRCDLV [G11P],3.59
22,NLAGFILGCQDAQFVSSVPRCDLV [G11D],2.76
23,NLAGFILGCQLAQFVSSVPRCDLV [G11L],3.39
24,NLAGFILGCQRAQFVSSVPRCDLV [G11R],5.06

row,Variant,protein stability index
1,NLAGFILGCQWAQFVSSVPRCDLV [G11W],3.48
2,NLAGFILGCQIAQFVSSVPRCDLV [G11I],3.71
3,NLAGFILGCQGAPFVSSVPRCDLV [Q13P],2.31
4,NLAGFILGCQGAFFVSSVPRCDLV [Q13F],3
5,NLAGFILGCQGAMFVSSVPRCDLV [Q13M],2.01
6,NLAGFILGCQGAAFVSSVPRCDLV [Q13A],4.08
7,NLAGFILGCQGACFVSSVPRCDLV [Q13C],2.76
8,NLAGFILGCQGADFVSSVPRCDLV [Q13D],2.27
9,NLAGFILGCQGANFVSSVPRCDLV [Q13N],2.93
10,NLAGFILGCQGATFVSSVPRCDLV [Q13T],3.16
11,NLAGFILGCQGAVFVSSVPRCDLV [Q13V],2.53
12,NLAGFILGCQGAQFVTSVPRCDLV [S16T],2.23
13,NLAGFILGCQGAQFVHSVPRCDLV [S16H],1.8
14,NLAGFILGCQGAQFVRSVPRCDLV [S16R],2.89
15,NLAGFILGCQGAQFVDSVPRCDLV [S16D],1.04
16,NLAGFILGCQGAQFVISVPRCDLV [S16I],3.41
17,NLAGFILGCQGAQFVKSVPRCDLV [S16K],3.56
18,NLAGFILGCQGAQFYSSVPRCDLV [V15Y],2.46
19,NLAGFILGCQGAQFDSSVPRCDLV [V15D],1.55
20,NLAGFILGCQGAQFHSSVPRCDLV [V15H],3.13
21,NLAGFILGCQGAQFQSSVPRCDLV [V15Q],3.5
22,NLAGFILGCQGAQFCSSVPRCDLV [V15C],2.72
23,NLAGFILGCQGAQFRSSVPRCDLV [V15R],1.75
24,NFAGFILGCQGAQFVSSVPRCDLV [L2F],2.65

row,Variant,protein stability index
1,NWAGFILGCQGAQFVSSVPRCDLV [L2W],1.35
2,NTAGFILGCQGAQFVSSVPRCDLV [L2T],1.76
3,NEAGFILGCQGAQFVSSVPRCDLV [L2E],2.13
4,NPAGFILGCQGAQFVSSVPRCDLV [L2P],1.26
5,NHAGFILGCQGAQFVSSVPRCDLV [L2H],1.7
6,NCAGFILGCQGAQFVSSVPRCDLV [L2C],1.31
7,NSAGFILGCQGAQFVSSVPRCDLV [L2S],1.55
8,NNAGFILGCQGAQFVSSVPRCDLV [L2N],1.97
9,NRAGFILGCQGAQFVSSVPRCDLV [L2R],1.87
10,NLAGFILGCQGAQFVSSVPRRDLV [C21R],1.64
11,NLAGFILGCQGAQFVSSVPRKDLV [C21K],3.12
12,NLAGFILGCQGAQFVSSVPRQDLV [C21Q],2.07
13,NLAGFILGCQGAQFVSSVPRDDLV [C21D],2.33
14,NLAGFILGCQGAQFVSSVPRFDLV [C21F],2.92
15,NLAGFILGCQGAQFVSSVPRCDLF [V24F],2.58
16,NLAGFILGCQGAQFVSSVPRCDLE [V24E],2.23
17,NLAGFILGCQGAQFVSSVPRCDLD [V24D],1.76
18,NLAGFILGCQGAQFVSSVPRCDLI [V24I],2.26
19,NLAGFILGCQGAQFVSSVPRCDLS [V24S],2.12
20,NLAGFILGCQGAQFVSSVPRCDLR [V24R],2.19
21,NLAGFILGCQGAQFVSSVPRCDLT [V24T],1.53
22,NLAGFILGCQGAQFVSSVPRCDLH [V24H],3.38

# — the supplement of paper PMC10567573
